± gives the uncertainty stated by the source.
assay: amyloid nucleation score (Sup35N fusion, yeast selection) (log enrichment); library NNK1; higher = more nucleation; inactive = no reads after selection
In short: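 Libraries of peptides of 20 random codons fused to Sup35N were expressed in psi-negative yeast and induced 24 hours with 100 μM copper sulfate. Selection was 7 days at 30°C on medium lacking adenine and uracil, and plasmid inserts were Illumina-sequenced before and after selection. Nucleation score is the DiMSum log enrichment of output over input reads, centred on the mode score of non-aggregating sequences, and sequences with under 100 input reads were left out.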

Point of comparison: LCDMAIDVFCLSCCK, amyloid nucleation score 6.652 ± 0.05. Against it:
- KVNTLCEHSSIHRPVVGNGG — lower, 0.082 ± 0.77
- KVRHNVVLG — lower, -1.19 ± 0.66
- KVRIQGPTNVCVVRTMCGWF — lower, 5.98 ± 0.056
- KWDKVALYFDQVQITELCIY — lower, 4.21 ± 0.091
- KWNCLVSCRLCELYLIPLI — lower, 3.58 ± 0.081
- KWNFVHMDQKGKELNSLFSL — lower, -0.649 ± 0.54
- KYFIMCDIILCVVPVSYTGG — lower, 3.87 ± 0.074
- KYFSSNSKYIYDQLIVPSRT — lower, -0.42 ± 1.7
- KYLFFMVFQWS — lower, 0.439 ± 0.84
- KYTYGRHTQLVLDSIHSWLN — lower, 0.235 ± 0.75
- LACTSASSVSRESFMYSQMS — lower, 2.78 ± 0.16
- LAEWRLYLRRTVWYLRILIR — lower, -0.066 ± 1
- LAFNTIYWVIRIESFWLSAA — lower, -0.189 ± 0.36
- LAGQVVRRTKTLWHAPAHPY — lower, 0.374 ± 0.36
- LALVDAHK — lower, -1.02 ± 1
- LARTMYCYIVSEKVLWSGVG — lower, 2.15 ± 0.1
- LARYMIYWGLMSAGRHRRHY — lower, -0.46 ± 0.43
- LAVRESIVQDKTWQDYE — lower, -0.102 ± 0.18
- LAWWLCGNLVTWYIITDGQW — lower, 1.04 ± 0.55
- LAYRR — lower, 0.274 ± 0.63
- LCAISHIE — lower, -0.502 ± 0.28
- LCDGFILLSNVLLGPMIYDW — lower, 0.561 ± 0.27
- LCIWYICRT — lower, 3.2 ± 0.16
- LCLGLHSNLSLSMLRLLVLE — lower, -0.482 ± 1.4
- LCLLIDNTYIVDVFFYVLSQ — lower, 1.49 ± 0.32
- LCLTKNMCTSIVRVRALVCR — lower, -0.161 ± 0.26
- LCNIITGVSSIGAYWSTKIL — lower, 1.22 ± 0.57
- LCNVEDRPYKKFPTDVASK — lower, -0.031 ± 0.31
- LCPGFNWESFLVKMVLHFFR — lower, -0.606 ± 0.75
- LCSNYQCLTTVYQLVVVAEW — lower, 3.54 ± 0.13
- LDDLPTILGVSEHSRSFVKV — lower, -0.324 ± 0.61
- LDEFSTSISITEWSSKL — lower, -0.261 ± 0.3
- LDGTLVLTYL — lower, 0.134 ± 0.42
- LDHTTVWCWCGTGGLYRRCC — lower, -0.29 ± 0.31
- LDIINLGGRHFTRSPVLYRN — lower, -0.297 ± 0.49
- LDLAFSFLHSTNIWTTFGLC — lower, -1.6 ± 1.4
- LDLMVVCFKGIRGFEKMIGG — lower, 1.5 ± 0.31
- LDQRKGPFSNSALRGHSWCN — lower, -0.506 ± 0.44
- LDSFTYKS — lower, 1.99 ± 0.49
- LDVSTRQRLVGVD — lower, -0.2 ± 0.61
- LEKQMNASQFAPPRLLLRKL — lower, 0.498 ± 0.87
- LELLSSWWYSSIYTGTDCVT — lower, 2.08 ± 0.25
- LEVMRWYWESLLACISLCD — lower, 0.853 ± 0.74
- LFCSLGSSPAYVNKWCVHLE — lower, 0.862 ± 0.45
- LFCVSDSPCVCGRHSISYDW — lower, -0.601 ± 0.9
- LFFMVLFNKSTEFERLFHIV — lower, -0.633 ± 0.56
- LFGLNWYNNGGRKSGCSDWA — lower, -0.503 ± 0.98
- LFKLSLGCTYCSFA — lower, -0.292 ± 0.42
- LFLFTGLSSRSLHMCIYEIL — lower, -0.046 ± 0.34
- LFLGMSNGLFLRMISRGCKW — lower, -0.243 ± 0.33
- LFMLSSVGASMYFMG — lower, 1.69 ± 0.19
- LFMLWLCCIKVFNKGCFGRS — lower, -0.297 ± 0.26
- LFPRVMN — lower, 0.338 ± 0.58
- LFRGDGFRKLLFWNSSTFET — lower, 2.67 ± 0.12
- LFRIPDWPEL — lower, -1.07 ± 0.77
- LFSSYSLEE — lower, 1.1 ± 0.77
- LFSWFWNEI — lower, 0.658 ± 0.72
- LFTIMTLDCNFRLSGLSLAI — lower, 0.236 ± 0.21
- LFTTWMSRGDIVSYNFFL — higher, 7.681 ± 0.049
- LFVGRGIAFVSFGPLALS — lower, 3.83 ± 0.08
- LFWWKE — lower, -0.292 ± 0.44
- LFYPFTLHWVCCSWCLYEVR — higher, 6.927 ± 0.056
- LGAMRLFTRSLFLADWKYDV — lower, -0.04 ± 0.45
- LGFSSVYWESCSL — lower, -0.275 ± 0.58
- LGFVDISGSYEVLGGYPSLR — lower, 0.031 ± 1.2
- LGGFYTRRCVCSLGTRQERE — lower, -0.072 ± 0.49
- LGHGLDRMKLRTECNCTVVD — lower, -0.503 ± 0.3
- LGICLLCTDIWDRVGNLCSL — lower, -0.041 ± 0.33
- LGLTYWCYNFIQGDVFPPVQ — lower, 3.46 ± 0.15
- LGLYSVCC — lower, -0.219 ± 0.3
- LGPNFGTKFNMGCY — lower, -0.304 ± 0.24
- LGSILV — lower, -0.751 ± 0.94
- LGTLNAGHTRDVDGAMGYVW — lower, 0.252 ± 1.1
- LGYIEKFWVGGHYLFLPTIY — lower, 0.073 ± 1.5
- LHCYFAFDLLWIALRTTVRI — lower, -0.457 ± 1
- LHDQCLAHGQWCNTWGK — lower, -0.022 ± 0.39
- LHFVERLSLRPMGVVGFSRK — lower, -0.178 ± 0.7

In the case of LAMPLFPLQDGSW, the amyloid nucleation score is reported as “inactive”.
In the case of LASFMQRRAYSDGHDMLVRM, the amyloid nucleation score is reported as “inactive”.
With LCFCVKVS the amyloid nucleation score was “inactive”.
With LFRFNWLDSNPV the amyloid nucleation score was “inactive”.
With LFRIIWGCS the amyloid nucleation score was “inactive”.
For LFRWVLLFFVRT, the amyloid nucleation score was “inactive”.
With LFSNTNK the amyloid nucleation score was “inactive”.

Source: the supplement of paper PMC12042874
